Measured values taken from US20230151111A1 (AKESO BIOPHARMA, published 2023).
Values belong to the binder of their own block, whether it stands above or below them.

Columns and labels:
[1] = target: T1, PD-1-mFc (human, UniProt Q15116 25-170, limits assumed); assay: BLI (Fortebio), antibody on AHC sensor, PD-1-mFc 0.6-50 nM, 37 C
T1 construct: also called human PD-1-mFc
Experimental: The sample dilution buffer was PBST, 0.1% BSA, pH 7.4. The antibody was immobilized on an AHC sensor at a concentration of 5 μg/mL with an immobilization height of about 0.4 nm. The sensor was equilibrated in a buffer for 60 s, and the binding of the immobilized antibody on the sensor to the antigen PD-1-mFc at concentrations of 0.6-50 nM (three-fold dilution) was determined in 120 s. The protein was dissociated in the buffer for 180 s. The detection temperature was 37° C., the detection frequency was 0.3 Hz, and the sample plate shaking rate was 1000 rpm. The data were analyzed by 1:1 model fitting to obtain affinity constants.

[2] = target: T2, human PD-1-mFc-biotin (human, UniProt Q15116 25-170, limits assumed, biotin label, site not stated); assay: competitive ELISA, competitor coated PD-L1-mFc; antibody 5 ug/mL diluted 1:3
Experimental: (§1) After incubation, the microplate was blocked with a PBS solution containing 1% BSA at 37° C. for 2 h. After blocking, the plate was washed three times and dried. The antibody was serially diluted to 7 concentrations in a gradient ratio of 1:3 on a dilution plate with 10 μg/mL as the starting concentration, and a blank control was set. […] Then the mixture after reaction was added to the coated microplate, and the microplate was incubated for at 37° C. for 30 min. After incubation, the plate was washed three times with PBST and dried. SA-HRP (KPL, 14-30-00) working solution was added, and the plate was incubated at 37° C. for 30 min. After incubation, the plate was washed four times and patted dry. Then TMB (Neogen, 308177) was added in the dark for chromogenesis for 5 min, and a stop solution was added to terminate chromogenic reaction. Then the microplate was put into a microplate reader immediately, and the OD value of each well in the microplate was read at 450 nm. The data were analyzed and processed by SoftMax Pro 6.2.1.

[3] = target: T3, human NT5E(1-552)-his (human, UniProt P21589 27-552); assay: BLI (Fortebio), antibody on Protein A sensor, NT5E(1-552)-his 3.125-200 nM, 37 C
T3 construct: The entry starts at Met 1
T3 sequence: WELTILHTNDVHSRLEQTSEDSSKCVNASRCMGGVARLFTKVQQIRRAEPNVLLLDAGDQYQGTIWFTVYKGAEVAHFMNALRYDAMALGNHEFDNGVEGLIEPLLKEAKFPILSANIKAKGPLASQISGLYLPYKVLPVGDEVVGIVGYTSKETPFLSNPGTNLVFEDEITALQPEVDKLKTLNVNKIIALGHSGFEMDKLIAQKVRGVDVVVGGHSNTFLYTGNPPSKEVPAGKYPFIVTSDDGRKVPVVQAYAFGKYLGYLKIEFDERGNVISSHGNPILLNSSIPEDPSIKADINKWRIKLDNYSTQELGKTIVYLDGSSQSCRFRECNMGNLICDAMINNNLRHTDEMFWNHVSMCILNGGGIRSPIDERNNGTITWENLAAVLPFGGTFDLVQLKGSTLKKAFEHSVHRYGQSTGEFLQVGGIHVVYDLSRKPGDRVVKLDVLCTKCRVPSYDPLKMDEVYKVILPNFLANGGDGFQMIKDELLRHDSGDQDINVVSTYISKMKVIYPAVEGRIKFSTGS
Experimental: The sample dilution buffer was PBST, pH 7.4. The antibody was immobilized on a Protein A sensor at a concentration of 5 μg/mL with the immobilization time of about 15 s. […] The protein was dissociated in the buffer for 600 s. The sensor was refreshed with 10 mM Gly solution, pH 1.5. The detection temperature was 37° C., the detection frequency was 0.6 Hz, and the sample plate shaking rate was 1000 rpm. The data were analyzed by 1:1 model fitting to obtain affinity constants.

[4] = target: T2, human PD-1-mFc-biotin; assay: competitive ELISA, competitor coated PD-L1-mFc; antibody 5 ug/mL
Experimental: as §1

T1 sequence (Q15116 other isoform, or with tags, fused parts or gaps limits assumed): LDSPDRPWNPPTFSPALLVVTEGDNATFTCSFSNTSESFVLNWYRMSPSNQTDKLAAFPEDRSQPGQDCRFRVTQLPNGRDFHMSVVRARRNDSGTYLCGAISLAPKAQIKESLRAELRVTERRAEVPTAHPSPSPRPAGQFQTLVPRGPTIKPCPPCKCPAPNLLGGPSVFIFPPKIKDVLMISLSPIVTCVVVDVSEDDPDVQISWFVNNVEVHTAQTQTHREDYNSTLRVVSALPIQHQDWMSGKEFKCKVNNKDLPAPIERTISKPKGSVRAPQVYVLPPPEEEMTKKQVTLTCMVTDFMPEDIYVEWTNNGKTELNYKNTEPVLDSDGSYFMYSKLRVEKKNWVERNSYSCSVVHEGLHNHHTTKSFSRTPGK
T2 sequence (Q15116 other isoform, or with tags, fused parts or gaps limits assumed): as above

Kd [1]: 0.176 nM
koff [1]: 7.37e-05 s⁻¹
kon [1]: 419000 M⁻¹ s⁻¹
OD450 [2]: 0.05 OD
Kd [3]: 0.229 nM
koff [3]: 4.13e-05 s⁻¹
kon [3]: 181000 M⁻¹ s⁻¹
B1: P1D7V01 (bispecific antibody, human IgG1, kappa)
heavy: not shown
light: DIQMTQSPSSMSASVGDRVTFTCRASQDINTYLSWFQQKPGKSPKTLIYRANRLVSGVPSRFSGSGSGQDYTLTISSLQPEDMATYYCLQYDEFPLTFGAGTKLELKRTVAAPSVFIFPPSDEQLKSGTASVVCLLNNFYPREAKVQWKVDNALQSGNSQESVTEQDSKDSTYSLSSTLTLSKADYEKHKVYACEVTHQGLSSPVTKSFNRGEC
notes: Morrison form IgG-scFv

OD450 [4]: 0.048 OD
B2: P1D7V03 (bispecific antibody, human IgG1, kappa)
heavy: not shown
light: B1 light
notes: Morrison form IgG-scFv
